Results on two molecules are retold here after PMC4133371.

This experiment addresses endogenous E-cadherin (dog (endogenous in MDCK)). Briefly: co-IP; endogenous E-cadherin collected by antibodies to its extracellular part from lysates of MDCK cells expressing DsRed, DECT, DECTSA, DECTN or DECTC; immunoblot with anti-β-catenin or anti-plakoglobin; bands quantified with NIH Image as percent of DsRed cells. (A western blot detects proteins with antibodies after separation by electrophoresis.)

Sequence of endogenous E-cadherin (dog (endogenous in MDCK)) (F1PAA9 27-885): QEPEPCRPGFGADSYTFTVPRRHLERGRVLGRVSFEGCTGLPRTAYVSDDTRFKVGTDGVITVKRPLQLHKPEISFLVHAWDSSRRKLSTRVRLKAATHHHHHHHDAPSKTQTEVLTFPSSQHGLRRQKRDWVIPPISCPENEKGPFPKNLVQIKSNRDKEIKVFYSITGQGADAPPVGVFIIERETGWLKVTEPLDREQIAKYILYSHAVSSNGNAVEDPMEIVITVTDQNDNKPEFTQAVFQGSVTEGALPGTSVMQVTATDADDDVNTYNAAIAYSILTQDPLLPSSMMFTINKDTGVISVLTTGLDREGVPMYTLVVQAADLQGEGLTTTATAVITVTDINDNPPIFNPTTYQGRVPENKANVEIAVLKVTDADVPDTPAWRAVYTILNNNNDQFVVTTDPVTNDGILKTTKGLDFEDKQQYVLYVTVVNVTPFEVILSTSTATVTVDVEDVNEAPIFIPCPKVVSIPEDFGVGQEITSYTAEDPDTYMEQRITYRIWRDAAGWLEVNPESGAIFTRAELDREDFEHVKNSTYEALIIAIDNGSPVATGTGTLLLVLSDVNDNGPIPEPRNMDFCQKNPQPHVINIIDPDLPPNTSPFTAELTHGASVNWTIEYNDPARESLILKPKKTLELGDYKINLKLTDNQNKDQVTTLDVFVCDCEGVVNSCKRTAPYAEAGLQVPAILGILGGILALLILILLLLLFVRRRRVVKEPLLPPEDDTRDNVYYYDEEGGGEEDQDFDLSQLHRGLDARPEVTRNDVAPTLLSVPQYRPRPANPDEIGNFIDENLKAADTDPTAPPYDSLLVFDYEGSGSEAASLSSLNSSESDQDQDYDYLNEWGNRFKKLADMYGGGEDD

plakoglobin (natural protein) gave a percent co-precipitated with endogenous E-cadherin relative to DsRed cells (cells expressing DECT) of 33%, a percent co-precipitated with endogenous E-cadherin relative to DsRed cells (cells expressing DECTC) of 187%, a percent co-precipitated with endogenous E-cadherin relative to DsRed cells (cells expressing DECTN) of 100% and a percent co-precipitated with endogenous E-cadherin relative to DsRed cells (cells expressing DsRed) of 100%.

B1: β-catenin (natural protein)
chain: MATQADLMELDMAMEPDRKAAVSHWQQQSYLDSGIHSGATTTAPSLSGKGNPEEEDVDTTQVLYEWEQGFSQSFTQEQVADIDGQYAMTRAQRVRAAMFPETLDEGMQIPSTQFDAAHPTNVQRLAEPSQMLKHAVVNLINYQDDAELATRAIPELTKLLNDEDQVVVNKAAVMVHQLSKKEASRHAIMRSPQMVSAIVRTMQNTNDVETARCTAGTLHNLSHHREGLLAIFKSGGIPALVKMLGSPVDSVLFYAITTLHNLLLHQEGAKMAVRLAGGLQKMVALLNKTNVKFLAITTDCLQILAYGNQESKLIILASGGPQALVNIMRTYTYEKLLWTTSRVLKVLSVCSSNKPAIVEAGGMQALGLHLTDPSQRLVQNCLWTLRNLSDAATKQEGMEGLLGTLVQLLGSDDINVVTCAAGILSNLTCNNYKNKMMVCQVGGIEALVRTVLRAGDREDITEPAICALRHLTSRHQEAEMAQNAVRLHYGLPVVVKLLHPPSHWPLIKATVGLIRNLALCPANHAPLREQGAIPRLVQLLVRAHQDTQRRTSMGGTQQQFVEGVRMEEIVEGCTGALHILARDVHNRIVIRGLNTIPLFVQLLYSPIENIQRVAAGVLCELAQDKEAAEAIEAEGATAPLTELLHSRNEGVATYAAAVLFRMSEDKPQDYKKRLSVELTSSLFRTEPMAWNETADLGLDIGAQGEPLGYRQDDPSYRSFHSGGYGQDALGMDPMMEHEMGGHHPGADYPVDGLPDLGHAQDLMDGLPPGDSNQLAWFDTDL
As to B1, the percent co-precipitated with endogenous E-cadherin relative to DsRed cells (cells expressing DECT) is 4%, the percent co-precipitated with endogenous E-cadherin relative to DsRed cells (cells expressing DECTC) was 24%, the percent co-precipitated with endogenous E-cadherin relative to DsRed cells (cells expressing DECTN) stood at 102% and the percent co-precipitated with endogenous E-cadherin relative to DsRed cells (cells expressing DsRed) worked out at 100%.
